{"source": "patent US20250304625A1", "about": "“ARTICLES AND METHODS FOR INHIBITING METHIONINE AMINOPEPTIDASE ACTIVITY” (Vanderbilt University, priority 2022, published 2025)", "molecules": {"B1": {"name": "Mm ZNG1 N-terminal peptide (peptide)", "peptide": "Ac-AEEEYAEDCPELVPIETKNQE-NH2"}, "B2": {"name": "Dr ZNG1 N-terminal peptide (peptide)", "peptide": "Ac-MEDEDECPELVPIKEKPSGP-NH2"}}, "key": {"TKPTS cells": {"system": "TKPTS cells", "assay": "TKPTS cell proliferation by CellTrace flow cytometry", "type": "cell-based, murine", "procedure": "TKPTS cells were seeding at 2,000 to 4,000 cells per well of 24- or 12-well tissue culture treated multi-well plates and incubated overnight at 37° C. Cells were staining with CellTRACE violet (Invitrogen, C34557) as described by manufacturer's protocol. Briefly, CellTRACE solution was prepared in PBS at a 1:1,000 dilution, added to the cells, and cells were incubated for 20 min at 37° C. Cells were then washed two times in cell culture media supplemented with 7% FBS, and replaced with fresh cell culture media supplemented with desired chemical treatments (3 μM TPA, Sigma, 723134; 5 μg/ml TNP470, Sigma, T1455; or 50 nM Bengamide B, Santa cruz, sc-397521A). Stock solutions of drugs were prepared in ACS-grade DMSO (Fisher Scientific, D136). […] After three days of growth, cells were stained with MitoTracker far-red (Invitrogen, M22426; 1:2500 dilution for 20 min at 37° C.) and MitoSOX red (Molecular probes, M36008: 1,1000 for 20 min at 37° C.) following manufacture's protocols. Cells were washed with PBS, trypsinized, and transferred to Eppendorf tubes prior to fixation in 4% PFA (Alfa aesar, J61899). Cells were fixed for 20 min at room temperature, centrifuged at 200×g for 10 min and washed with PBS prior to resuspension in 300 μl FACS buffer (2% FBS, 0.02% sodium azide in PBS). All flow cytometry data were collected using a BD LSRII flow cytometer with FACSDIVA software and analyzed using FlowJo (FlowJo LLC). Samples were gated forward scatter height (FSC-H) by forward scatter area (FSC-A) and side scatter height (SSC-H) by side scatter area (SSC-A) to remove doublet populations. The singlet population was gated SSC-A by FSC-A to isolate live cells. The resulting cell population was then assessed for assay-specific fluorescent markers and the median fluorescence intensity (MFI) quantified."}, "[1]": {"system": "zebrafish larvae (WT and zng1^−/−)", "assay": "Zebrafish larval survival under Metap inhibitor immersion", "type": "in vivo", "procedure": "(§1) For all experiments larval zebrafish were bred naturally and collected into embryo media and were maintained at 28° C. on a 14/10 h light/dark cycle for duration of experiments. For survival experiments, zebrafish larvae were split into even densities into 6 or 12 multi-well plates in 5 mL or 1 mL embryo media respectively at 3 dpf. Stock solutions of METAP2 inhibitor TNP-470 (Sigma, T1455) and METAP1/2 inhibitor Bengamide B (Santa cruz, sc-397521A) were prepared in ACS-grade DMSO (Fisher Scientific, D136) and TPEN (Sigma, P4413) was prepared in ethanol and stored at −20° C. TNP-470, Bengamide B, and/or TPEN were applied into embryo media as well as a DMSO and/or ethanol vehicle controls at 3 dpf. Zebrafish survival was monitored daily until 6 dpf and all moribund or dead animals were removed. For qPCR experiments, larvae were split at 3 dpf into groups of 20-30 larvae in 20 mL of embryo media supplemented either 20 μM of TPEN or ethanol vehicle control. For imaging experiments, 6 dpf zebrafish larvae treated with 500 nM to 1 μM of Bengamide B or vehicle control were imaged by a Leica Thunder M205FCA stereomicroscope with a Leica DFC9000 GT camera."}, "[2]": {"system": "zebrafish larvae (WT, zng1 mutant, metap1 mutant)", "assay": "Zebrafish larval morphometry and gross pathology imaging", "type": "in vivo", "procedure": "as §1"}, "murine METAP1": {"target": "T1, murine METAP1 (Mus musculus, UniProt Q8BP48)", "T1 construct": "final preparations of full-length METAP1 utilized in in vitro experiments in this study were purified, stripped of metal; 6xHis (N, cleaved yes); SUMO (N, cleaved yes); made in house; host or cells: E. coli BL21(DE3)", "assay": "Murine ZNG1 activation of METAP1 assay (Met release from MAHAIHY)", "type": "biochemical", "procedure": "Methionine aminopeptidase activity was evaluated by quantifying the release of Met from the heptapeptide MAHAIHY (Genscript) as adapted from (Kabir-ud-Din, 2003). Reactions were conducted at 25° C. in 25 mM HEPES pH 7.4, 150 mM NaCl, 2 mM TCEP and consisted of 20 nM murine METAP1 with 0, 1, or 2 molar equivalents of Zn. Reactions were initiated with the addition of varying concentrations of MAHAIHY peptide. 50 μL aliquots were taken every 30 sec from 30-150 sec and the reaction was quenched with the addition of 10 μL glacial acetic acid (Supelco, Sigma-Aldrich). 60 μL of 4% w/v ninhydrin (Sigma-Aldrich) in 100% ACN was added to each quenched reaction and incubated at 37° C. for 1 h to detect free Met. The absorbance at 570 nm was measured and the cleaved Met concentration was determined from a standard curve of 10-500 μM Met. All data are reported as the average of triplicate measurements from each evaluated experimental condition. Midpoint and completed reactions were additionally analyzed by LC-ESI-MS to confirm the generation of the expected AHAIHY cleaved peptide product (FIG. 11 I).\nActivation assays were performed in 25 mM HEPES pH 7.4, 150 mM KCl, 2 mM MgCl2, 2 mM TCEP. 250 μM NTA was included where indicated. 10 μM Zn2METAP1 was incubated with 25 μM apo or ZnZNG1 (ZNG1 loaded with 0.9 eq, 22.5 μM, Zn) at 37° C. for 1 h. Reactions were diluted 500-fold in 25 mM HEPES pH 7.4, 150 mM NaCl, 2 mM TCEP to a final concentration of 20 nM METAP1 and methionine aminopeptidase activity was assayed as described above by initiating the enzymatic reaction with addition of 750 μM MAHAIHY. When using GTP, GDP, or GDPNP, the activation reaction contained 500 μM of the indicated nucleotide. A control activation reaction of Zn-NTA contained 22.5 μM and 250 μM NTA in reaction buffer."}, "zebrafish Metap1": {"target": "T2, zebrafish Metap1 (Danio rerio, UniProt Q4QRK0)", "T2 construct": "Full-length zebrafish metap1 was amplified from 6 dpf whole larval cDNA and cloned into pLM302; 6xHis (N); MBP (N); made in house; host or cells: E. coli BL21(DE3)", "assay": "Zebrafish Metap1 methionine aminopeptidase activity (HPLC endpoint)", "type": "biochemical", "details": "1 μM Dr Zng1 and 1 μM Metap1, 100 μM MAHAIHY", "procedure": "A single endpoint assay was used for these experiments. Reaction buffer (20 mM HEPES (pH 7.5), 150 mM NaCl) was chelex treated overnight at 4° C. 1 μM solutions of zebrafish Metap1 and Zng1 were made in reaction buffer. To strip Zn from the METAP1 active site, 3 μM of TPEN was incubated with 1 μM METAP1 at 4° C. for 1 h. To prepare holo-Zng1 (Zn bound), Zng1 was incubated with 10 μM of ZnCl2 for 1 h at 4° C. As a control, Metap1 was incubated with reaction buffer alone. Following the 1 h incubation, Zng1 and Metap1 were washed four times with chelex-treated reaction buffer using protein concentration columns (Amicon Ultra, UFC500396). After washes, proteins were mixed and incubated at 37° C. for 30 min. Following incubation, 100 μM of the synthetic peptide MAHAIHY (Genscript) was added to reactions and incubated for 90 min at 37° C. Reactions were stopped by the addition of a final concentration of 2% trifluoroacetic acid and samples were centrifuged at max speed for 5 min. […]\nTwenty μL of each sample and standard was analyzed on an Agilent 1260 Infinity II system. […] MAHAIHY and AHAIHY were detected using absorbance at 280 nm, and retention times were confirmed using each standard. Methionine aminopeptidase relative activity was determined by calculating the percent of MAHAIHY converted to AHAIHY using the AUC values at 280 nm for each peptide."}, "murine METAP1 1-59": {"target": "murine METAP1 1-59 (mouse, UniProt Q8BP48)", "assay": "intrinsic Trp (W45) fluorescence quenching, 1:1 model", "procedure": "(§2) Peptide binding experiments were performed using an ISS PC1 spectrofluorometer at 25.0° C. Intrinsic Trp fluorescence was monitored using λₑₓ=292 nm nm and λₑₘ=350 nm, with quenching of the 350 nm emission maxima as aliquots of ZNG1 peptide were added. Different [METAP1_{1-59/1-79}] values were used for replicate experiments to better calculate the binding stoichiometry and analyzed globally. In a typical experiment, 5 μM METAP1_{1-59/1-79} in 2.5 mL were incubated for 10 min in chelexed buffer [25 mM HEPES (pH 7.4), 150 mM NaCl, and 2.5 mM TCEP], and aliquots of ZNG1 peptide were added. The equilibrium time was 2 min between subsequent additions of ZNG1 peptide. The peak emission intensities at 350 nm from triplicate experiments were globally fit to a 1:1 binding model using Dynafit (Kuzmic, 1996).\n(§3) METAP1 binding of ZNG1 peptides was confirmed by monitoring quenching of W45 fluorescence in murine METAP1₁₋₅₉ and METAP1₁₋₇₉, upon addition of chemically synthesized N-terminal ZNG1 peptides from human, mouse, and zebrafish (FIGS. 2D,E and 9 I). […] Combined, these findings identify the specific regions of interaction between ZNG1 and METAP1."}, "murine METAP1 1-79": {"target": "murine METAP1 1-79 (mouse, UniProt Q8BP48)", "assay": "intrinsic Trp (W45) fluorescence quenching, 1:1 model", "procedure": "as §2, §3"}, "[3]": {"details": "10 μM Zn2METAP1, 25 μM ZNG1, no nucleotide"}}}
{"molecule": "CO[C@@H]1[C@H](OC(=O)NC(=O)CCl)CC[C@]2(CO2)[C@H]1[C@@]1(C)O[C@@H]1CC=C(C)C", "note": "[TNP-470]", "values": [{"measurement": "proliferation (CellTrace)", "setting": "TKPTS cells; Zng1^−/− cells relative to WT, 5 μg/ml TNP-470", "value": "slowed proliferation"}, {"measurement": "survival", "setting": "[1]; zng1 mutant larvae compared to WT, Zn-deplete conditions (TPEN)", "value": "more pronounced"}, {"measurement": "survival", "setting": "[1]; zng1 mutant larvae compared to WT, immersion, three days", "value": "decreased survival"}]}
{"molecule": "CCCCCCCCCCCCCC(=O)O[C@H]1CC[C@H](NC(=O)[C@H](OC)[C@H](O)[C@@H](O)[C@H](O)/C=C/C(C)C)C(=O)N(C)C1", "note": "[Bengamide B]", "values": [{"measurement": "proliferation (CellTrace)", "setting": "TKPTS cells; WT TKPTS cells, 50 nM Bengamide B", "value": "reduced cellular proliferation"}, {"measurement": "height at anterior anal fin (HAA)", "setting": "[2]; WT larvae, 6 dpf, three days 500 nM vs vehicle", "value": "significantly reduced HAA"}, {"measurement": "morphologic abnormalities (PCE, YSE, USB, CD)", "setting": "[2]; metap1 mutant larvae vs WT controls at 6 dpf, 1 μM", "value": "significantly higher morphologic abnormalities"}, {"measurement": "survival", "setting": "[1]; WT control larvae, 1 μM inhibitor, three days of treatment", "value": "remained viable"}, {"measurement": "lethality", "setting": "[1]; zng1 mutant larvae, 1 μM inhibitor, three days of treatment", "value": 100, "unit": "%"}, {"measurement": "viability", "setting": "[1]; zng1 mutant larvae, co-treatment 500 nM Bengamide B and TPEN vs 500 nM Bengamide B alone", "value": "decreased viability"}]}
{"molecule": "ApoZNG1: recombinant murine ZNG1 devoid of bound metal", "values": [{"measurement": "activation of Zn2METAP1", "setting": "murine METAP1; [3]", "value": "no activation"}]}
{"molecule": "Zebrafish Zng1: recombinant zebrafish Zng1, Zn bound (holo-Zng1)", "values": [{"measurement": "apo-Metap1 activity", "setting": "zebrafish Metap1", "value": "stimulates"}]}
{"molecule": "ZnZNG1: recombinant murine ZNG1 loaded with 0.9 eq Zn at the high-affinity site", "values": [{"measurement": "activation of Zn2METAP1", "setting": "murine METAP1; [3]", "value": "recovers small amounts of Zn4METAP1 activity"}, {"measurement": "activation of Zn2METAP1", "setting": "murine METAP1; 250 μM NTA, GDPNP", "value": "no effect"}, {"measurement": "activation of Zn2METAP1", "setting": "murine METAP1; 250 μM NTA, GTP, above that of NTA-bound Zn", "value": "significant activation"}, {"measurement": "activation of Zn2METAP1", "setting": "murine METAP1; 250 μM NTA, presence and absence of GDP", "value": "only minor activation"}, {"measurement": "activation of Zn4METAP1", "setting": "murine METAP1; fully metalated Zn4METAP1, absence of nucleotide", "value": "no activation"}, {"measurement": "activation of Zn2METAP1", "setting": "murine METAP1; in the presence of 500 μM GDP", "value": "some ZnZNG1-dependent activation"}, {"measurement": "activation of Zn2METAP1", "setting": "murine METAP1; in the presence of 500 μM GDPNP", "value": "no activation"}, {"measurement": "activation of Zn2METAP1", "setting": "murine METAP1; in the presence of 500 μM GTP", "value": "nearly fully activates"}]}
{"molecule": "Hs ZNG1 N-terminal peptide", "values": [{"measurement": "Kd", "setting": "murine METAP1 1-59", "value": 100, "unit": "nM"}, {"measurement": "Kd", "setting": "murine METAP1 1-79", "value": 100, "unit": "nM"}]}
{"molecule": "B1", "values": [{"measurement": "Kd", "setting": "murine METAP1 1-59", "value": "~100", "unit": "nM"}, {"measurement": "Kd", "setting": "murine METAP1 1-79", "value": "~100", "unit": "nM"}]}
{"molecule": "B2", "values": [{"measurement": "Kd", "setting": "murine METAP1 1-59", "value": "~100", "unit": "nM"}, {"measurement": "Kd", "setting": "murine METAP1 1-79", "value": "~100", "unit": "nM"}]}
